assay: yeast display, Sf9 membrane polyspecificity reagent, FACS + sequencing; frameworks hold sequencing errors
Outline: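 Sorting gates, low and high (top ~1%), were placed on anti-HA fluorescence to track expression and on streptavidin fluorescence to track reagent binding. A clone's polyreactivity label is taken from the gate it came out of. The reagent was 10% biotinylated, detergent-solubilized Sf9 membrane, applied for 1 hour at 4 °C to galactose-induced yeast display cells.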

Sequence | polyreactivity (PSR sort gate)
QVQLVESGGGLVQAGGSLRLSCAASGRIFKTYAMGWYRQAPGKERELVAAISIRGGSTYYAESVKGRFTISRDNAKNTVYLQMNSLKPEDTAVYYCNALYGRQIVDYDYWGQGTQVTVSS | low polyreactivity
QVQLVESGGGLVQAGGSLRLSCAASGRIFKWNAMGWYRQAPGKDRELVAAINLSTRSTYYADSVKGRFTISRDNAKNTVYLEMHSLKTVDTAVYYCAAVTYANYYYDAYYYWGQGSQVTVSS | high polyreactivity
QVQLVESGGGLVQAGGSLRLSCAASGRIFKWYAMGWSRQAPGKEWEFVAGISGSAGRTYYADSVKGRCTISRDNAKNTVYLQMNSLKPEDTAVYYCAAVYYSSLYDYWGQGTQVTVSS | low polyreactivity
QVQLVESGGGLVQAGGSLRLSCAASGRIFKWYAMGWYRQAPGKERELVAAISRSGGTTYYADSVKGRFTISRDNAKNTVYLQMNSLKPEDTAVYYCATRNIYFSSVDYWGQGTQVTVSS | high polyreactivity
QVQLVESGGGLVQAGGSLRLSCAASGRIFKWYAMGWYRQAPGKVRELVAAISARGGRTYYADSVKGRFTISRDNAKNTVYLQMNSLKPEDTAVYYCATDYVKSDAYKYYYWGQGTQVTVSS | high polyreactivity
QVQLVESGGGLVQAGGSLRLSCAASGRIFKYNAMGWYRQAPGKERELVAAISSSGGSTYYADSVKGRCTISRDNAKNTVYLQMNSLKPEDTAVYYCAARYNSRVYRYDYWGQGTQVTVSS | high polyreactivity
QVQLVESGGGLVQAGGSLRLSCAASGRIFKYYAMGWYRPAPWKKRELVATISVSGGRTYYADSVKGRFTISRDNAKNTVYLQMNSLKPEDTAVYYCAAYSVIRRRVEYGYWGQGTQVTVSS | high polyreactivity
QVQLVESGGGLVQAGGSLRLSCAASGRIFKYYAMGWYRQAPGKERELVAAISTSVGSTYYADSVKGRFTISRDNAKNTVYLQMNSLKPEDTAVYYCNTRKYHYFLGGAAGNYWGQGTQVTVSS | high polyreactivity
QVQLVESGGGLVQAGGSLRLSCAASGRIFKYYAMGWYRQAPGKERELVAAITSSGVSTYADSVKGRFTISRDNAKNTVYLQMNSLKPEDTAVSYCNAADERSQGWVGCDHWGQCTQVTVSS | low polyreactivity
QVQLVESGGGLVQAGGSLRLSCAASGRIFKYYAMGWYRQAPGKERELVATITSGGRTNYADSVKGRFTISRDNAKNTVYLQMNSLKPEDTAVYYCARRPPASSRYDYWGQGTQVTVSS | high polyreactivity
QVQLVESGGGLVQAGGSLRLSCAASGRIFKYYAMGWYRQAPGKNRELVATISVSGANTYYADSVKGRFTISRDNAKNPVYLQMNSLKREDTAVYFCAAGYAGVSHITRTSRKSHYGYWGQGTQVTVSS | high polyreactivity
QVQLVESGGGLVQAGGSLRLSCAASGRIFKYYARGGYRQAPGKERELVAAISGSGGSTFYADSVKGRFTISRDNAKNTVYLQMNSLKPEDTAVYYCNADEVVWGYNYWGQGTQVTVSS | low polyreactivity
QVQLVESGGGLVQAGGSLRLSCAASGRIFKYYSMGWYRQAPWKERELVAAITRGGSTNYADSVKGRFTISRDNEKNTVYLQMNSLKPEDTAVYYCAVDTVRNHRMDYWGQGTQVTVSS | low polyreactivity
QVQLVESGGGLVQAGGSLRLSCAASGRIFLDYAMGWYRQAPGKERELVAAINSGGRTNYADSVKGRFTISRDNAKNTVYLQMNSLKPEDTAVYYCAAGYWPRWFWPYEYWGQGTQVTVSS | low polyreactivity
QVQLVESGGGLVQAGGSLRLSCAASGRIFLDYVMGWYRQAPGKERELVAAISWSGDRTDYADSVKGRFTISRDNAKNTVYLQMNSLKPEDTAVYYCASTWYFAYSDDYKFDYWGQGTQVTVSS | low polyreactivity
QVQLVESGGGLVQAGGSLRLSCAASGRIFLFYAMGWYRQGPGKERALVAAINWSGTRTYYADSVKGRFTISRDNAKNSVYLHMNSLKPEDTAVYDCNVDTSVYDFSEYDYWGQGTQVTVSS | high polyreactivity

Sequence | polyreactivity (PSR sort gate)
QVQLVESGGGLVQAGGSLRLSCAASGRIFLFYTMGWYRQAPGKERELVAGITFSGGSTYYADSVKGRFTISRDNAKNTVYLQMNSLKPEDTAVYYCNARRWWQSYDYWGQGTQVTVSS | high polyreactivity
QVQLVESGGGLVQAGGSLRLSCAASGRIFLGNAMGWYRPAPGKERELVAAITNGGGSTYYADSVNGRFTISRDNAKNTVYLQMNSLKPEDTAVYYCAAQRWTVKYNYWGQGTQVTVSS | high polyreactivity
QVQLVESGGGLVQAGGSLRLSCAASGRIFLGNAMGWYRQAPGKERELVDAITYSGRSTYYADSVKGRFTISRDNAKNTVYLQMNSLKPEDTAVYYCAARQYWTTDLPFQRYYYWGQGTHVTVSS | low polyreactivity
QVQLVESGGGLVQAGGSLRLSCAASGRIFLGYAMGWYRQAPGQERELVASITSSGGSTYYADSVKGRFTISRDNAKNTVYLLMNSLKPEDTAVYYCAKVGHYRWGWLSRAASDYWGQGTQVTVSS | high polyreactivity
QVQLVESGGGLVQAGGSLRLSCAASGRIFLGYTMGWYRQAPGKERELVAAISKSGDSTYYADSVKGRFTISRDNAKNTVYLQMNSLKPEDTAVYYCAKDYGGRLYYYWGQGTQVTVSS | high polyreactivity
QVQLVESGGGLVQAGGSLRLSCAASGRIFLIYAMGWYRQAPGKERELVAAISWSGGSTYYADSVKGRFTISRDNAKNTVYLQMNSLKPEDTAVYYCNADDVNYGYYSWYDYWGQGTQVTVSS | low polyreactivity
QVQLVESGGGLVQAGGSLRLSCAASGRIFLLNAMGWYRQAPGKERELVADISFNGGSKYYADSVKGRFTISRDNAKNTVYLQMNSLKPEDTAVYYCNADAHNLWFRYYYWGQGTQVTVSS | low polyreactivity
QVQLVESGGGLVQAGGSLRLSCAASGRIFLPYAMGWYGQAPGKERELFASISGSGGRTYYADSVKGRFTISRDHANNTVYLQMISQKPEDTAVYYCANRPVYAGYRFNYWGQGTQLTVSS | high polyreactivity
QVQLVESGGGLVQAGGSLRLSCAASGRIFLQYDMGWYRQAPGKERELVAGISSRGGSMYYADSVKGRFTISRDNAKNTVYLQMNSLKPEDTAVYYGAAQTKRIRYVYKHYYWGQGTQVTVSS | high polyreactivity
QVQLVESGGGLVQAGGSLRLSCAASGRIFLRNAMGWYRQAPGKERELVANITSRGGSTYYADSVKGRFTISRDNAKNTVYLQMNSLKPEDTAVYYCAADPRRYRGFGYVYGGFYYWGQGTQVTVSS | low polyreactivity
QVQLVESGGGLVQAGGSLRLSCAASGRIFLRNTMGWYRQAPGTERELVAAITGRGGSTYYADSVKGRFTISRDNAKNTVYLQMNSLIPEDTAVYYCAARSPGYSPPGPVRLSDYWGQGTQVTVSS | high polyreactivity
QVQLVESGGGLVQAGGSLRLSCAASGRIFLRYAMGWYRQAPGKERELVAVITWSGGSTYYADSVKGRFTISRDNAKNTVYLQMNSLKPEDTAVYYCAADWYPTGFYYWGQGTQVTVSS | low polyreactivity
QVQLVESGGGLVQAGGSLRLSCAASGRIFLTYAMGWYRQAPGKERELVAAISGRGGSTYYADSVNGRFTISRDYAKNTVYLQMNSLKPEDTAVYYCAAAKWVIQTGNYYYWGQGTQVTVSS | low polyreactivity
QVQLVESGGGLVQAGGSLRLSCAASGRIFLTYAMGWYRQAPGKERELVAAISTSGTRTYYADSVKGRFTISRDNAKNTVYLQMNSLKPEDTAVYYCAREKYNYRTYEYWGQGTQVTVSS | high polyreactivity
QVQLVESGGGLVQAGGSLRLSCAASGRIFLTYAMGWYRQAPGKERELVAAITDNGGDTYYADSVKGRFTISRDNAKNTVYLQMNSLKPEDTAVYYCAKTTLSVAGLDFDYWGQGTQVTVSS | low polyreactivity
